Series [1] can be described thus: Western blot of UBAP2L, ccRCC cells. The settings on record: control: shCtrl / untreated.
Series [2] can be described thus: CHX-chase, Western blot, ccRCC cells. The settings on record: glycan lost; control: WT / shCtrl / untreated.
Another series in a line: qPCR, 786-O and Caki-1. The settings on record: glycan lost; control: UBAP2L-WT overexpression.
The nature of series [3]: Flag IP, HA-Ub blot, MG132. The conditions noted are these: control: shCtrl.

These results are taken from PMC12487280.

B1: UBAP2L: OGT knockdown (protein)
parent chain: MMTSVGTNRARGNWEQPQNQNQTQHKQRPQATAEQIRLAQMISDHNDADFEEKVKQLIDITGKNQDECVIALHDCNGDVNRAINVLLEGNPDTHSWEMVGKKKGVSGQKDGGQTESNEEGKENRDRDRDYSRRRGGPPRRGRGASRGREFRGQENGLDGTKSGGPSGRGTERGRRGRGRGRGGSGRRGGRFSAQGMGTFNPADYAEPANTDDNYGNSSGNTWNNTGHFEPDDGTSAWRTATEEWGTEDWNEDLSETKIFTASNVSSVPLPAENVTITAGQRIDLAVLLGKTPSTMENDSSNLDPSQAPSLAQPLVFSNSKQTAISQPASGNTFSHHSMVSMLGKGFGDVGEAKGGSTTGSQFLEQFKTAQALAQLAAQHSQSGSTTTSSWDMGSTTQSPSLVQYDLKNPSDSAVHSPFTKRQAFTPSSTMMEVFLQEKSPAVATSTAAPPPPSSPLPSKSTSAPQMSPGSSDNQSSSPQPAQQKLKQQKKKASLTSKIPALAVEMPGSADISGLNLQFGALQFGSEPVLSDYESTPTTSASSSQAPSSLYTSTASESSSTISSNQSQESGYQSGPIQSTTYTSQNNAQGPLYEQRSTQTRRYPSSISSSPQKDLTQAKNGFSSVQATQLQTTQSVEGATGSAVKSDSPSTSSIPPLNETVSAASLLTTTNQHSSSLGGLSHSEEIPNTTTTQHSSTLSTQQNTLSSSTSSGRTSTSTLLHTSVESEANLHSSSSTFSTTSSTVSAPPPVVSVSSSLNSGSSLGLSLGSNSTVTASTRSSVATTSGKAPPNLPPGVPPLLPNPYIMAPGLLHAYPPQVYGYDDLQMLQTRFPLDYYSIPFPTPTTPLTGRDGSLASNPYSGDLTKFGRGDASSPAPATTLAQPQQNQTQTHHTTQQTFLNPALPPGYSYTSLPYYTGVPGLPSTFQYGPAVFPVAPTSSKQHGVNVSVNASATPFQQPSGYGSHGYNTGVSVTSSNTGVPDISGSVYSKTQQSFEKQGFHSGTPAASFNLPSALGSGGPINPATAAAYPPAPFMHILTPHQQPHSQILHHHLQQDGQTGSGQRSQTSSIPQKPQTNKSAYNSYSWGAN
B1: in series [1] (glycan lost), the expression_or_secretion entry is “decreases”. The degradation_or_half_life entry in series [2] was “decreases”.

B2: UBAP2L: UBAP2L-MUT (S305A) (protein)
parent chain: MMTSVGTNRARGNWEQPQNQNQTQHKQRPQATAEQIRLAQMISDHNDADFEEKVKQLIDITGKNQDECVIALHDCNGDVNRAINVLLEGNPDTHSWEMVGKKKGVSGQKDGGQTESNEEGKENRDRDRDYSRRRGGPPRRGRGASRGREFRGQENGLDGTKSGGPSGRGTERGRRGRGRGRGGSGRRGGRFSAQGMGTFNPADYAEPANTDDNYGNSSGNTWNNTGHFEPDDGTSAWRTATEEWGTEDWNEDLSETKIFTASNVSSVPLPAENVTITAGQRIDLAVLLGKTPSTMENDSSNLDPSQAPSLAQPLVFSNSKQTAISQPASGNTFSHHSMVSMLGKGFGDVGEAKGGSTTGSQFLEQFKTAQALAQLAAQHSQSGSTTTSSWDMGSTTQSPSLVQYDLKNPSDSAVHSPFTKRQAFTPSSTMMEVFLQEKSPAVATSTAAPPPPSSPLPSKSTSAPQMSPGSSDNQSSSPQPAQQKLKQQKKKASLTSKIPALAVEMPGSADISGLNLQFGALQFGSEPVLSDYESTPTTSASSSQAPSSLYTSTASESSSTISSNQSQESGYQSGPIQSTTYTSQNNAQGPLYEQRSTQTRRYPSSISSSPQKDLTQAKNGFSSVQATQLQTTQSVEGATGSAVKSDSPSTSSIPPLNETVSAASLLTTTNQHSSSLGGLSHSEEIPNTTTTQHSSTLSTQQNTLSSSTSSGRTSTSTLLHTSVESEANLHSSSSTFSTTSSTVSAPPPVVSVSSSLNSGSSLGLSLGSNSTVTASTRSSVATTSGKAPPNLPPGVPPLLPNPYIMAPGLLHAYPPQVYGYDDLQMLQTRFPLDYYSIPFPTPTTPLTGRDGSLASNPYSGDLTKFGRGDASSPAPATTLAQPQQNQTQTHHTTQQTFLNPALPPGYSYTSLPYYTGVPGLPSTFQYGPAVFPVAPTSSKQHGVNVSVNASATPFQQPSGYGSHGYNTGVSVTSSNTGVPDISGSVYSKTQQSFEKQGFHSGTPAASFNLPSALGSGGPINPATAAAYPPAPFMHILTPHQQPHSQILHHHLQQDGQTGSGQRSQTSSIPQKPQTNKSAYNSYSWGAN
With B2, the “other: Melk mRNA level” value in “qPCR, 786-O and Caki-1” is on record as “decreases”.

B3: UBAP2L: shOGA (protein)
parent chain: MMTSVGTNRARGNWEQPQNQNQTQHKQRPQATAEQIRLAQMISDHNDADFEEKVKQLIDITGKNQDECVIALHDCNGDVNRAINVLLEGNPDTHSWEMVGKKKGVSGQKDGGQTESNEEGKENRDRDRDYSRRRGGPPRRGRGASRGREFRGQENGLDGTKSGGPSGRGTERGRRGRGRGRGGSGRRGGRFSAQGMGTFNPADYAEPANTDDNYGNSSGNTWNNTGHFEPDDGTSAWRTATEEWGTEDWNEDLSETKIFTASNVSSVPLPAENVTITAGQRIDLAVLLGKTPSTMENDSSNLDPSQAPSLAQPLVFSNSKQTAISQPASGNTFSHHSMVSMLGKGFGDVGEAKGGSTTGSQFLEQFKTAQALAQLAAQHSQSGSTTTSSWDMGSTTQSPSLVQYDLKNPSDSAVHSPFTKRQAFTPSSTMMEVFLQEKSPAVATSTAAPPPPSSPLPSKSTSAPQMSPGSSDNQSSSPQPAQQKLKQQKKKASLTSKIPALAVEMPGSADISGLNLQFGALQFGSEPVLSDYESTPTTSASSSQAPSSLYTSTASESSSTISSNQSQESGYQSGPIQSTTYTSQNNAQGPLYEQRSTQTRRYPSSISSSPQKDLTQAKNGFSSVQATQLQTTQSVEGATGSAVKSDSPSTSSIPPLNETVSAASLLTTTNQHSSSLGGLSHSEEIPNTTTTQHSSTLSTQQNTLSSSTSSGRTSTSTLLHTSVESEANLHSSSSTFSTTSSTVSAPPPVVSVSSSLNSGSSLGLSLGSNSTVTASTRSSVATTSGKAPPNLPPGVPPLLPNPYIMAPGLLHAYPPQVYGYDDLQMLQTRFPLDYYSIPFPTPTTPLTGRDGSLASNPYSGDLTKFGRGDASSPAPATTLAQPQQNQTQTHHTTQQTFLNPALPPGYSYTSLPYYTGVPGLPSTFQYGPAVFPVAPTSSKQHGVNVSVNASATPFQQPSGYGSHGYNTGVSVTSSNTGVPDISGSVYSKTQQSFEKQGFHSGTPAASFNLPSALGSGGPINPATAAAYPPAPFMHILTPHQQPHSQILHHHLQQDGQTGSGQRSQTSSIPQKPQTNKSAYNSYSWGAN
As to B3, the “other: ubiquitination” value in series [3] (glycan gained) is given as “decreases”.

B4: UBAP2L: OGA knockdown (protein)
parent chain: MMTSVGTNRARGNWEQPQNQNQTQHKQRPQATAEQIRLAQMISDHNDADFEEKVKQLIDITGKNQDECVIALHDCNGDVNRAINVLLEGNPDTHSWEMVGKKKGVSGQKDGGQTESNEEGKENRDRDRDYSRRRGGPPRRGRGASRGREFRGQENGLDGTKSGGPSGRGTERGRRGRGRGRGGSGRRGGRFSAQGMGTFNPADYAEPANTDDNYGNSSGNTWNNTGHFEPDDGTSAWRTATEEWGTEDWNEDLSETKIFTASNVSSVPLPAENVTITAGQRIDLAVLLGKTPSTMENDSSNLDPSQAPSLAQPLVFSNSKQTAISQPASGNTFSHHSMVSMLGKGFGDVGEAKGGSTTGSQFLEQFKTAQALAQLAAQHSQSGSTTTSSWDMGSTTQSPSLVQYDLKNPSDSAVHSPFTKRQAFTPSSTMMEVFLQEKSPAVATSTAAPPPPSSPLPSKSTSAPQMSPGSSDNQSSSPQPAQQKLKQQKKKASLTSKIPALAVEMPGSADISGLNLQFGALQFGSEPVLSDYESTPTTSASSSQAPSSLYTSTASESSSTISSNQSQESGYQSGPIQSTTYTSQNNAQGPLYEQRSTQTRRYPSSISSSPQKDLTQAKNGFSSVQATQLQTTQSVEGATGSAVKSDSPSTSSIPPLNETVSAASLLTTTNQHSSSLGGLSHSEEIPNTTTTQHSSTLSTQQNTLSSSTSSGRTSTSTLLHTSVESEANLHSSSSTFSTTSSTVSAPPPVVSVSSSLNSGSSLGLSLGSNSTVTASTRSSVATTSGKAPPNLPPGVPPLLPNPYIMAPGLLHAYPPQVYGYDDLQMLQTRFPLDYYSIPFPTPTTPLTGRDGSLASNPYSGDLTKFGRGDASSPAPATTLAQPQQNQTQTHHTTQQTFLNPALPPGYSYTSLPYYTGVPGLPSTFQYGPAVFPVAPTSSKQHGVNVSVNASATPFQQPSGYGSHGYNTGVSVTSSNTGVPDISGSVYSKTQQSFEKQGFHSGTPAASFNLPSALGSGGPINPATAAAYPPAPFMHILTPHQQPHSQILHHHLQQDGQTGSGQRSQTSSIPQKPQTNKSAYNSYSWGAN
With B4, the expression_or_secretion result in series [1] (glycan gained) is recorded as “increases”.

B5: UBAP2L: shOGT (protein)
parent chain: MMTSVGTNRARGNWEQPQNQNQTQHKQRPQATAEQIRLAQMISDHNDADFEEKVKQLIDITGKNQDECVIALHDCNGDVNRAINVLLEGNPDTHSWEMVGKKKGVSGQKDGGQTESNEEGKENRDRDRDYSRRRGGPPRRGRGASRGREFRGQENGLDGTKSGGPSGRGTERGRRGRGRGRGGSGRRGGRFSAQGMGTFNPADYAEPANTDDNYGNSSGNTWNNTGHFEPDDGTSAWRTATEEWGTEDWNEDLSETKIFTASNVSSVPLPAENVTITAGQRIDLAVLLGKTPSTMENDSSNLDPSQAPSLAQPLVFSNSKQTAISQPASGNTFSHHSMVSMLGKGFGDVGEAKGGSTTGSQFLEQFKTAQALAQLAAQHSQSGSTTTSSWDMGSTTQSPSLVQYDLKNPSDSAVHSPFTKRQAFTPSSTMMEVFLQEKSPAVATSTAAPPPPSSPLPSKSTSAPQMSPGSSDNQSSSPQPAQQKLKQQKKKASLTSKIPALAVEMPGSADISGLNLQFGALQFGSEPVLSDYESTPTTSASSSQAPSSLYTSTASESSSTISSNQSQESGYQSGPIQSTTYTSQNNAQGPLYEQRSTQTRRYPSSISSSPQKDLTQAKNGFSSVQATQLQTTQSVEGATGSAVKSDSPSTSSIPPLNETVSAASLLTTTNQHSSSLGGLSHSEEIPNTTTTQHSSTLSTQQNTLSSSTSSGRTSTSTLLHTSVESEANLHSSSSTFSTTSSTVSAPPPVVSVSSSLNSGSSLGLSLGSNSTVTASTRSSVATTSGKAPPNLPPGVPPLLPNPYIMAPGLLHAYPPQVYGYDDLQMLQTRFPLDYYSIPFPTPTTPLTGRDGSLASNPYSGDLTKFGRGDASSPAPATTLAQPQQNQTQTHHTTQQTFLNPALPPGYSYTSLPYYTGVPGLPSTFQYGPAVFPVAPTSSKQHGVNVSVNASATPFQQPSGYGSHGYNTGVSVTSSNTGVPDISGSVYSKTQQSFEKQGFHSGTPAASFNLPSALGSGGPINPATAAAYPPAPFMHILTPHQQPHSQILHHHLQQDGQTGSGQRSQTSSIPQKPQTNKSAYNSYSWGAN
For the protein B5, in series [3] (glycan lost), the “other: ubiquitination” value is “increases”.
